These results are taken from patent JP2003510672A.

For experiment [1], the target named is ヒト組換え型CD4 (RepliGen, USA) (human) (UniProt P01730). Briefly: SPR (BIACORE 2000, 25 C), KD calculated as kd/ka; mimetic immobilised, soluble CD4 injected.
The target is the same in experiment [2]. Briefly: SPR (BIACORE 2000, 25 C), mimetic immobilised on B1 chip, soluble CD4 injected at 16-330 nM.

The Kd is a measure of binding affinity in units of concentration. Broadly, the koff is the rate constant with which the complex falls apart. The low end stands for slow dissociation, the high end for fast dissociation. Usually kon stands for a measure of how fast the partners come together. Low readings indicate slower complex formation, high ones faster complex formation. Turning to “疑似体 Mk3Tyr-long1SH (cyclic peptide mimetic of the ST40 paratope; MK3Tyr with the Ile between Tyr140 and Asn144 replaced by Lys extended with 3-mercaptopropionic acid)”, the Kd in experiment [1] was 3.2 nM. In experiment [2], this substance returned a koff of 0.000264 s⁻¹ and a kon of 82600 M⁻¹ s⁻¹.
